According to patent US6403637 (dated 2002):

T1: collagenase-3 receptor (170 kDa protein) of mouse embryo fibroblasts MEF-1 and MEF-2 (mouse, UniProt Q64449 31-1479)
T1 construct: whole, on cells
T1 sequence (looked up): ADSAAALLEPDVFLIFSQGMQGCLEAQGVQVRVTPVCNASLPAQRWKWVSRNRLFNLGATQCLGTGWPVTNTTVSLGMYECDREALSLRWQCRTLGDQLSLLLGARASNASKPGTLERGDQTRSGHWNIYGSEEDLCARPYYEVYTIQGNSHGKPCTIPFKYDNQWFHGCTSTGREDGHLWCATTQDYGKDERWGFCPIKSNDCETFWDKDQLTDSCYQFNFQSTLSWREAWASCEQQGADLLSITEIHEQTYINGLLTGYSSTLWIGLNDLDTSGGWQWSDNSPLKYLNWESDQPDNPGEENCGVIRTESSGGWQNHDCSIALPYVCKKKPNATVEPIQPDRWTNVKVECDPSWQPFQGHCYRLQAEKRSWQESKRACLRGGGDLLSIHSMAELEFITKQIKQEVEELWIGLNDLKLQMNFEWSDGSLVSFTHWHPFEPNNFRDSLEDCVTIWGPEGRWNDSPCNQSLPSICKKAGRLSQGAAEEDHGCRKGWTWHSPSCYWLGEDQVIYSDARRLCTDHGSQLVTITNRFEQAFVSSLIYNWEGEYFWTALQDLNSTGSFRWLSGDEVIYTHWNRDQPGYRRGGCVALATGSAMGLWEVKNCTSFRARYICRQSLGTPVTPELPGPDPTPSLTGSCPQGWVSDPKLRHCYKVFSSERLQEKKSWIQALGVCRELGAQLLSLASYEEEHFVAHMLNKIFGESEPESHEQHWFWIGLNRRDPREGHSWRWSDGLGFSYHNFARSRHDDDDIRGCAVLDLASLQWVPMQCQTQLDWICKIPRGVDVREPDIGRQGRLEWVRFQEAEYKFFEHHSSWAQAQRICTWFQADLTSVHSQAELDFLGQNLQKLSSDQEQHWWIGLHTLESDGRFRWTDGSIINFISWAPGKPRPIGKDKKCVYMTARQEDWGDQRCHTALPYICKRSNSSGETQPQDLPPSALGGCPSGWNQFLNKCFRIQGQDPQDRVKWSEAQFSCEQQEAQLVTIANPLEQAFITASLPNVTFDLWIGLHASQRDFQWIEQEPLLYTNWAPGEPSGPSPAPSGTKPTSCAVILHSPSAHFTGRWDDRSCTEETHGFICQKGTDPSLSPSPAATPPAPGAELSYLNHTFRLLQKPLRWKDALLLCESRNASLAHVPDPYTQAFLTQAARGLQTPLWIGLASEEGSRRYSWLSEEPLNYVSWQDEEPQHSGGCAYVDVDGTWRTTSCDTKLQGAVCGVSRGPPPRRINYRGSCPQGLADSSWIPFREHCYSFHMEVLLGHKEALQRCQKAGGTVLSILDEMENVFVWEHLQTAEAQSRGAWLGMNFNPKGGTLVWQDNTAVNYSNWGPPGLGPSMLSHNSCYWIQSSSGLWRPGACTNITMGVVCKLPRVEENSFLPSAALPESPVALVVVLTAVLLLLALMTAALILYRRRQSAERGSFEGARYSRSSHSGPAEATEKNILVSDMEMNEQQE

B1: recombinant mouse collagenase-3 (mMMP-13, residues 1-472) (enzyme)
chain: not shown
modifications: ^125I-labeled where used as tracer
notes: not shown: N-terminal 6×His purification tag of pET30
B2: C-terminally truncated mouse collagenase-3, M(1-265) (enzyme)
chain: not shown
notes: range 1-265; also called MMP-13 (1-265); truncated MMP-13; not shown: N-terminal 6×His purification tag of pET30
B3: H/M(229-472) chimeric collagenase (enzyme)
chain: not shown
notes: 62 kDa; not shown: N-terminal 6×His purification tag of pET30
B4: HM/M(141-472) chimeric collagenase (enzyme)
chain: not shown
notes: as for B3

Tests used:
[1] = biological target: T1, collagenase-3 receptor (170 kDa …); experiment: competition with ^125I mouse collagenase-3 on MEF-2 (LRP null) cells; 200-, 400- and 800-fold excess of competitor
Text: This sequence corresponds to a published low density lipoprotein receptor-related protein consensus binding sequence.

[2] = biological target: T2, low density lipoprotein receptor-related protein of rat cells (UMR 106-01, normal rat osteoblasts) (rat); experiment: Scatchard analysis of ^125I-mMMP-13 binding to UMR106-01 cells; lower affinity site (ostensibly the low density lipoprotein receptor-related protein)
T2 construct: whole, on cells; On blotted membranes in ligand and Western blots; also called LRP; 600 kDa protein
T2 sequence (G3V928 20-3944): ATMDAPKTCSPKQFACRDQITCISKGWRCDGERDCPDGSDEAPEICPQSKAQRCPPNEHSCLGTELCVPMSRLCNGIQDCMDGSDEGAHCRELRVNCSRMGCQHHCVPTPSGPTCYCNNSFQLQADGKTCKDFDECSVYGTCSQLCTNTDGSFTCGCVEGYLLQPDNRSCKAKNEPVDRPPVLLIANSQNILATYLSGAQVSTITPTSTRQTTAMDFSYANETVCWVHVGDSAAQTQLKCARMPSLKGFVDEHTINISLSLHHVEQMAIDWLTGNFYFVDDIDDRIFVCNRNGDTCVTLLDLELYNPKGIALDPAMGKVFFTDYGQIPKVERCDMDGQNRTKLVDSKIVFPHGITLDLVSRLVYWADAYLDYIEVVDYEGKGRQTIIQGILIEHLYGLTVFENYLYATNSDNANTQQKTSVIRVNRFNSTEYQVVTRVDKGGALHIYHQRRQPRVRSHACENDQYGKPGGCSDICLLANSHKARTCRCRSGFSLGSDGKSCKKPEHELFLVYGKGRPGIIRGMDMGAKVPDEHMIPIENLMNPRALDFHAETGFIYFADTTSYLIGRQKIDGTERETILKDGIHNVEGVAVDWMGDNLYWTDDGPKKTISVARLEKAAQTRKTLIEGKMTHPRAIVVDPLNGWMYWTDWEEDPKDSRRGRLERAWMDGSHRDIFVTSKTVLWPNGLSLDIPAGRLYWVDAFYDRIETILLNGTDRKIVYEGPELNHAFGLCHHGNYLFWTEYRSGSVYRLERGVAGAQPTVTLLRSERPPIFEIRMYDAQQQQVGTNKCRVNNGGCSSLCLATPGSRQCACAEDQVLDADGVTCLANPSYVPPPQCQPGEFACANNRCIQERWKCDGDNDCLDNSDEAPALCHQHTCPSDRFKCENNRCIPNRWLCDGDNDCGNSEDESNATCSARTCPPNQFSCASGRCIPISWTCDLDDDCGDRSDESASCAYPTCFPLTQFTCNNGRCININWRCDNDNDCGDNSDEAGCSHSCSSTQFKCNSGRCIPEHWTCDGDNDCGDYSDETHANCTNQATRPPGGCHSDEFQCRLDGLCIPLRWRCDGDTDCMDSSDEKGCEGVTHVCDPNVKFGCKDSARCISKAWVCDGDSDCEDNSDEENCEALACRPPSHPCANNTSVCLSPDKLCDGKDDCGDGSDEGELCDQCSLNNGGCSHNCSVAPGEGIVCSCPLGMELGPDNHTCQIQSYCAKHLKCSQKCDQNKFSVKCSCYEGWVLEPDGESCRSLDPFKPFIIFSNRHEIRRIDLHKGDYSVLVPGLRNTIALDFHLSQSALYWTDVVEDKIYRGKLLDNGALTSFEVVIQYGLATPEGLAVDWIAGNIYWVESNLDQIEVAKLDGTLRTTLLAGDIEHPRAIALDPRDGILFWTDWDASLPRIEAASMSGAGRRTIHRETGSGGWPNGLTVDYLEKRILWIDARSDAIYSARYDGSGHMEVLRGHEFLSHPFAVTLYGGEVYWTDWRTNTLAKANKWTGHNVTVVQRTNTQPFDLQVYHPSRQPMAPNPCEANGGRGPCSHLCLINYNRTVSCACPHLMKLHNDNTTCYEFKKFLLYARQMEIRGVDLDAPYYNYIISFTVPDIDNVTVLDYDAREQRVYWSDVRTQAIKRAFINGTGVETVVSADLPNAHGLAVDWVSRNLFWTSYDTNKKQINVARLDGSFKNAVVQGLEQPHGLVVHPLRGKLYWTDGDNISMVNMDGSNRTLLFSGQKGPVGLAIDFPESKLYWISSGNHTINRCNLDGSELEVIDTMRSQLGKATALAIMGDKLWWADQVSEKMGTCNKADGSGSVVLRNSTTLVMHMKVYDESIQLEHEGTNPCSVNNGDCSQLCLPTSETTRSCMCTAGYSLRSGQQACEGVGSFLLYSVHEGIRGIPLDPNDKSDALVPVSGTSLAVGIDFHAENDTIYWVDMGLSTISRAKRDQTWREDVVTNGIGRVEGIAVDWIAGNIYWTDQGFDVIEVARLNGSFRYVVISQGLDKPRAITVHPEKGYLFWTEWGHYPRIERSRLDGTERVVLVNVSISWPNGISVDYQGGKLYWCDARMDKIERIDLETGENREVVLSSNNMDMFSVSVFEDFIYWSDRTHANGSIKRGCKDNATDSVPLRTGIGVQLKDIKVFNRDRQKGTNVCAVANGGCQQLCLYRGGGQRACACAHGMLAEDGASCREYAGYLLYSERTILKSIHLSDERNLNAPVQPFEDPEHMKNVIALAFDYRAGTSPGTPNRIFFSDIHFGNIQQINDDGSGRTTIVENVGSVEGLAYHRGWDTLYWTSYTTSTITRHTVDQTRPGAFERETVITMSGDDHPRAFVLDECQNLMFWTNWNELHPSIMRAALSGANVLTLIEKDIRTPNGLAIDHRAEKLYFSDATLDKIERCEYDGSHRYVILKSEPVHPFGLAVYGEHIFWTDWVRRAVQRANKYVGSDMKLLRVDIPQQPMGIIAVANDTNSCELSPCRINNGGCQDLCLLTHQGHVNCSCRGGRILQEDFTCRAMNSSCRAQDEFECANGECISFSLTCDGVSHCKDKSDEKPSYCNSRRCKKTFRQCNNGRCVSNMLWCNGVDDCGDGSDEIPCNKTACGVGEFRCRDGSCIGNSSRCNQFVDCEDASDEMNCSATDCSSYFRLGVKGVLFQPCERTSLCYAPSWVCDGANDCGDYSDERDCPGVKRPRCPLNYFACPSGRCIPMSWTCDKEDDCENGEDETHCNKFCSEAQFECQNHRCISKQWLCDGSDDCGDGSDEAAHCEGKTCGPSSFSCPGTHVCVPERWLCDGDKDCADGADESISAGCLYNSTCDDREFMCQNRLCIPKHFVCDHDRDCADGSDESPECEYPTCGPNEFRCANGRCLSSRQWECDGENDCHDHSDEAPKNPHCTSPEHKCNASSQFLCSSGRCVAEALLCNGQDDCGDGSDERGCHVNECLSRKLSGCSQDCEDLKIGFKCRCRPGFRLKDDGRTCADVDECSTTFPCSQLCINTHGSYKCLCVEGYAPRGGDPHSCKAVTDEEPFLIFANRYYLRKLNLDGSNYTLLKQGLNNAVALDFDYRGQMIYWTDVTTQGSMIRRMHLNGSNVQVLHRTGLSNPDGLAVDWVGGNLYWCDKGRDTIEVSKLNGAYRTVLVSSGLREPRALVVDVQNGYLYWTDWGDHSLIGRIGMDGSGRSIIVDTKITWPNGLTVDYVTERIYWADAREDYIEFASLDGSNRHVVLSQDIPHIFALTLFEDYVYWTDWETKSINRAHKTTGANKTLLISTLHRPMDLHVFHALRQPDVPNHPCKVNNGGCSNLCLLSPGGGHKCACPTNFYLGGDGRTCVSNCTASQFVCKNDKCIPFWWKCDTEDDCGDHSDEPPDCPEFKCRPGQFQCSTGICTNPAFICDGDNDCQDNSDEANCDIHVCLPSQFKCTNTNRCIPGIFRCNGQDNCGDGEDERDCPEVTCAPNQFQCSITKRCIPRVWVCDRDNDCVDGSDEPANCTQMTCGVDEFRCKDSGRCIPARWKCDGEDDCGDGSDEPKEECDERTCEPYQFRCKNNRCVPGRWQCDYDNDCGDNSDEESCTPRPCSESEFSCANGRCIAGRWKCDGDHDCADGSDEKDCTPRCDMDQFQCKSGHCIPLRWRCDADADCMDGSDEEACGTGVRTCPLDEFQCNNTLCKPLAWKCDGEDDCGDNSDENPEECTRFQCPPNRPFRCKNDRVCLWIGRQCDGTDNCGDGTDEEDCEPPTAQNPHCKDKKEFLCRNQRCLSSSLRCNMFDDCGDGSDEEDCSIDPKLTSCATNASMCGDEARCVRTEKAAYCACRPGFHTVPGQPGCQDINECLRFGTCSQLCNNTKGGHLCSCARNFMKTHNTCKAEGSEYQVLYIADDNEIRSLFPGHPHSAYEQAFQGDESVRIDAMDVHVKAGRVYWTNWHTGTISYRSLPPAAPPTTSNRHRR

[3] = biological target: T3, rat collagenase-3 receptor (170 kDa protein) of UMR 106-01 rat osteosarcoma cells and other rat cells (rat); experiment: from the Scatchard analysis on UMR 106-01 cells
T3 construct: whole, on cells; on blotted cell membranes in the ligand blots; also called collagenase receptor; rat collagenase receptor

[4] = biological target: T3, rat collagenase-3 receptor (170 kDa …); experiment: Scatchard analysis of ^125I-mMMP-13 binding to UMR106-01 cells; high affinity site (ostensibly the collagenase-3 receptor)
[5] = biological target: T2, low density lipoprotein …; experiment: computer analysis of ^125I-mMMP-13 binding to UMR106-01 cells; lower affinity site

| percent of mouse collagenase-3 binding [1] | Kd [2] | fold higher affinity compared to the low density lipoprotein receptor-related protein [3] | Kd [4] | Kd [5] | Binder |
| --- | --- | --- | --- | --- | --- |
| 100% | 46.2 nM | ~10 fold | 3.9 nM | 52.8 nM | B1 |
| 99.4% |  |  |  |  | B2 |
| 0% |  |  |  |  | B3 |
| 15.3% |  |  |  |  | B4 |
